Assay [1] has as its target T1, murine CD200R2a (murine, UniProt Q6XJV6 25-249).
T1 sequence: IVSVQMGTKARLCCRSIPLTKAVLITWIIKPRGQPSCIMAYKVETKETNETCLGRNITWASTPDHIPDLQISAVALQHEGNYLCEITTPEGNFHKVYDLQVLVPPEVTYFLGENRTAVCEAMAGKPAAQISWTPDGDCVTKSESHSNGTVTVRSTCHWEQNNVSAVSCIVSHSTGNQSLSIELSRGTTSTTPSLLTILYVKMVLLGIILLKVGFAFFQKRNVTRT
The assay can be described thus: FACS, FITC-CD200Fc on COS cells transiently transfected with CD200R isoform cDNA. The text has this: (§1) In order to assess whether the various CD200R isoforms described could all serve as counter-igands for CD200, an immunoadhesin (CD200Fc) incorporating the extracellular domain of CD200 linked to a murine IgG2a Fc region as described (51) was used. CD200Fc was coupled to FITC and the inventors then examined by FACS analysis binding of FITC-labeled CD200Fc to COS cells transiently transfected with pBK vectors encoding cDNAs for the various CD200R isoforms. As control the inventors examined binding to COS cells transduced with empty pBK vectors. COS cells expressing the different CD200R isoforms all bound FITC-CD200Fc.
On the technique in general: Flow cytometry measures light scatter and fluorescence of single cells or particles in a stream.

Assay [2] deals with T2, murine CD200R3a (murine, UniProt Q5UKY4 26-272).
T2 sequence: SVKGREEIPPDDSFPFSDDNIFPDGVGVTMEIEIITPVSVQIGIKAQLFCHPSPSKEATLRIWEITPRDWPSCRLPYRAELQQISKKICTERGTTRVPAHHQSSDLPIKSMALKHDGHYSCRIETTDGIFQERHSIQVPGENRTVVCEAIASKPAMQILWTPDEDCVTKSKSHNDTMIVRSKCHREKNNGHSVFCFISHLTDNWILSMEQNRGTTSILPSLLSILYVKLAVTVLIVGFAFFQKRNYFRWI
Described as above.
From the text: as §1

Assay [3] deals with T3, CD200 receptor (CD200R) on primary mouse cells, isoform not stated (mouse) (UniProt Q9ES57).
T3 sequence: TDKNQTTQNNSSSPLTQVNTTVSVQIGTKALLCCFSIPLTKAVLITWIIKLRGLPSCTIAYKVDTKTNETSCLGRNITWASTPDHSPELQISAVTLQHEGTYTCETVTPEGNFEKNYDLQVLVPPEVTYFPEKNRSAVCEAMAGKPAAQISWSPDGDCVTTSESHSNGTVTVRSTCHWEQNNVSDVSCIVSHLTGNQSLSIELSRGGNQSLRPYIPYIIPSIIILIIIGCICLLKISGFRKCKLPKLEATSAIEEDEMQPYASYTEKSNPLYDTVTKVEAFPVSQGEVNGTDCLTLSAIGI
The assay can be described thus: cell-based or functional assay.

B1: CD200Fc immunoadhesin (extracellular domain of CD200 linked to a murine IgG2a Fc region) (Fc fusion, mouse, UniProt O54901 31-232, looked up)
chain: QVEVVTQDERKALHTTASLRCSLKTSQEPLIVTWQKKKAVSPENMVTYSKTHGVVIQPAYKDRINVTELGLWNSSITFWNTTLEDEGCYMCLFNTFGSQKVSGTACLTLYVQPIVHLHYNYFEDHLNITCSATARPAPAISWKGTGTGIENSTESHFHSNGTTSVTSILRVKDPKTQVGKEVICQVLYLGNVIDYKQSLDKG
modifications: FITC-labelled in the binding assays
notes: extracellular domain; Made in a baculovirus system in Sf insect cells; also called FITC-CD200Fc; FITC-CD200:Fc; not shown: murine IgG2a Fc region; the ch
Turning to B1, the binding result in assay [1] and in assay [2] was “binds” each time.

B2: mouse CD200 on dendritic cells (ligand, UniProt O54901 31-278, looked up)
chain: QVEVVTQDERKALHTTASLRCSLKTSQEPLIVTWQKKKAVSPENMVTYSKTHGVVIQPAYKDRINVTELGLWNSSITFWNTTLEDEGCYMCLFNTFGSQKVSGTACLTLYVQPIVHLHYNYFEDHLNITCSATARPAPAISWKGTGTGIENSTESHFHSNGTTSVTSILRVKDPKTQVGKEVICQVLYLGNVIDYKQSLDKGFWFSVPLLLSIVSLVILLVLISILLYWKRHRNQERGESSQGMQRMK
With B2, in assay [3], the IFNγ in MLC at 40 hrs; CD200R+ cells + CD200+ DC is 0.145 ng/mL; the IFNγ in MLC; CD200R+ cells + CD200+ DC, no mAb turned out to be 0.17 ng/mL; the IL-2 in MLC at 40 hrs; CD200R+ cells + CD200+ DC came out at 0.16 ng/mL; the IL-2 in MLC; CD200R+ cells + CD200+ DC, no mAb worked out at 0.165 ng/mL. Further, in assay [3], the IL-4 in MLC at 40 hrs; CD200R+ cells + CD200+ DC is 0.255 ng/mL and the IL-10 in MLC at 40 hrs; CD200R+ cells + CD200+ DC came out at 0.225 ng/mL.

These data come from patent publication US20080267967A1 (TRILLIUM THERAPEUTICS, published 2008).
